Values quoted from earlier work as cited in publication PMC8506081.

Tests used:
[1] = target: PSD-95 (Homo sapiens) (UniProt P78352)
[2] = target: PSD-95 PDZ2 (Homo sapiens) (UniProt P78352)
PSD-95 PDZ2 (Homo sapiens), sequence (P78352 157-249): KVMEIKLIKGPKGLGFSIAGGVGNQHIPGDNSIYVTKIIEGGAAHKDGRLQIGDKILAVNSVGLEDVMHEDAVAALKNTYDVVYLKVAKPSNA

PSD-95 (Homo sapiens), sequence (P78352 whole entry): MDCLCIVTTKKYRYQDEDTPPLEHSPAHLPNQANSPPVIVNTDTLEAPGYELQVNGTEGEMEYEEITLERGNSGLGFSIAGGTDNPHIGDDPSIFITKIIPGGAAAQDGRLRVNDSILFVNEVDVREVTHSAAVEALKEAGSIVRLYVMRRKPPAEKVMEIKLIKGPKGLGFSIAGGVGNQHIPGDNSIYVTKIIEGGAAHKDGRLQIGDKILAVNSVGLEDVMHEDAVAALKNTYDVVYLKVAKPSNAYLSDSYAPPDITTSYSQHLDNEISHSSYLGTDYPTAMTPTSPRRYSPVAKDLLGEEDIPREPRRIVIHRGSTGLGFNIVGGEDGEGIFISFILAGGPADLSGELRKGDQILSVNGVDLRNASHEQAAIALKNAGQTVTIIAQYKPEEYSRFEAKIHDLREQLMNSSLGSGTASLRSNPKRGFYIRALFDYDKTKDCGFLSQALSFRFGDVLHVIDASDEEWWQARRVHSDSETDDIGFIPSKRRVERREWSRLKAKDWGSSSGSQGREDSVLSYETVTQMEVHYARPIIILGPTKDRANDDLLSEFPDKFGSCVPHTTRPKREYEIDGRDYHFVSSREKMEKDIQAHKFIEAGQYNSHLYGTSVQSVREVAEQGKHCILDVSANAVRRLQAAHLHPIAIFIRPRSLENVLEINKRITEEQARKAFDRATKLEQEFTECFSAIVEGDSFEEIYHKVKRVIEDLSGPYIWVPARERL

Row | Ki [1] [µM] | Substance | Ki [2] [µM]
1 | 0.01 | AVLX-125 | 
2 |  | NA-1 | 4.4
